These results are taken from patent US20200079851A1 (University of Texas, published 2020).

One may read the EC50 as the concentration that produces a half-maximal response. A high value points to lower potency in that assay. A word on the EC50 (read off the curve): it is the concentration giving half of the maximal effect. A low value points to greater potency.

The target in assay [1] is T1, human LILRB4 (human, UniProt Q8NHJ6 22-259, limits assumed).
T1 construct: also called leukocyte immunoglobulin-like receptor subfamily B member 4
As to the kind of experiment: ELISA. Background: In an ELISA, binding on a coated surface is turned into a signal by an enzyme label.

The target in a further assay is T2, LILRB4-ECD-Fc (human, UniProt Q8NHJ6 27-259).
T2 construct: also called LILRB4-Fc; LILRB4 ECD-Fc fusion protein; not shown: Fc part
Kind of assay: ELISA, mAb titrated.

Assay [2] has as its target T3, LILRB4 D1 (first Ig-like domain) Fc fusion protein (human, UniProt Q8NHJ6 27-118).
T3 construct: also called D1 of LILRB4; not shown: Fc part
As to the kind of experiment: ELISA, mAb titrated.

The target in assay [3] is T1, human LILRB4. Kind of assay: ELISA, OD450 against antibody concentration.
The target of a further assay is T4, LILRB1 (human, UniProt Q8NHL6 24-458, limits assumed).
T4 construct: also called leukocyte immunoglobulin-like receptor subfamily B member 1
Kind of assay: cross-reactivity test on the LILRBs (ELISA per paragraph 433).

For assay [4], the target named is T5, LILRB2 (human, UniProt Q8N423 22-458, limits assumed).
T5 construct: also called leukocyte immunoglobulin-like receptor subfamily B member 2
The description is as above.

Assay [5] deals with T6, LILRB3 (human, UniProt O75022 24-443, limits assumed).
T6 construct: also called leukocyte immunoglobulin-like receptor subfamily B member 3
The assay is described as above.

The target in assay [6] is T7, LILRB5 (human, UniProt O75023 24-458, limits assumed). The description is as above.
For another assay, the target named is T8, D2.
T8 construct: also called LILRB4 D2-hIgG1-Fc; second Ig-like domain of LILRB4 as Fc fusion
Kind of assay: matrix of binding to LILRB4 domain-Fc fusions (FIG. 47); ELISA per paragraph 433.

Another assay addresses T9, SR.
T9 construct: also called LILRB4 SR-hIgG1-Fc; stalk region of LILRB4 as Fc fusion
The assay is described as above.

Assay [7] concerns the target T1, human LILRB4. Kind of assay: ELISA, mAb titrated on the WT protein of the LILRB4 mutant series of FIG. 52 (construct limits not stated).
Assay [8] concerns the target T1, human LILRB4. Kind of assay: ELISA, OD450 against antibody concentration. The source holds these as a separate data set.
Assay [9] deals with T6, LILRB3. Kind of assay: cross-reactivity ELISA (FIG. 46).
Assay [10] deals with T7, LILRB5. As to the kind of experiment: cross-reactivity ELISA (FIG. 46).
Assay [11] has as its target T1, human LILRB4. As to the kind of experiment: ELISA, OD450 against antibody concentration. This is another data set of the same source.
The target of assay [12] is T1, human LILRB4. As to the kind of experiment: ELISA, OD450 against antibody concentration. This is another data set of the same source.
Assay [13] concerns the target T1, human LILRB4. Kind of assay: ELISA, OD450 against antibody concentration. The source holds these as a separate data set.
The target of assay [14] is T1, human LILRB4. Kind of assay: ELISA, OD450 against antibody concentration. This is another data set of the same source.
Assay [15] concerns the target T1, human LILRB4. Kind of assay: ELISA, OD450 against antibody concentration. The source holds these as a separate data set.
Assay [16] deals with T1, human LILRB4. Kind of assay: ELISA, OD450 against antibody concentration. The source holds these as a separate data set.
For assay [17], the target named is T1, human LILRB4. Kind of assay: reactivity table, assay not named on the sheet.
Assay [18] has as its target T6, LILRB3. As to the kind of experiment: reactivity table, assay not named on the sheet.
Assay [19] addresses T7, LILRB5. Kind of assay: reactivity table, assay not named on the sheet.
Assay [20] concerns the target T5, LILRB2. Kind of assay: flow cytometry on LILRB2-overexpressing 293T cells, mAb at 2 ug/ml.

T9 sequence (fusion chain, as listed by the source): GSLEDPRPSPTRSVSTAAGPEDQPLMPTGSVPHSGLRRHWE
T7 sequence (O75023 24-458 limits assumed): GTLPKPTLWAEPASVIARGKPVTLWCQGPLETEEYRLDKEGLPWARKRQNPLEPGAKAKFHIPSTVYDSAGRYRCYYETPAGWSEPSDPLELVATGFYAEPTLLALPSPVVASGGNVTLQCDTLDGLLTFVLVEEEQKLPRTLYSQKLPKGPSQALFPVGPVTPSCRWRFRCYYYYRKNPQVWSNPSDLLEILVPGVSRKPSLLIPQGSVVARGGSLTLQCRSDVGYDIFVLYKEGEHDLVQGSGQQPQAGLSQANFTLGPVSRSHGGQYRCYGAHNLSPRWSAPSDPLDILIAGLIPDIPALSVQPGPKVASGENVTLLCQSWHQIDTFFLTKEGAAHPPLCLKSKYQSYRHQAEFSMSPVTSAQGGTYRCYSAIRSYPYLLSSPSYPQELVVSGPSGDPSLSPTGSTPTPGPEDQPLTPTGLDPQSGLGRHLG
T5 sequence (Q8N423 22-458 limits assumed): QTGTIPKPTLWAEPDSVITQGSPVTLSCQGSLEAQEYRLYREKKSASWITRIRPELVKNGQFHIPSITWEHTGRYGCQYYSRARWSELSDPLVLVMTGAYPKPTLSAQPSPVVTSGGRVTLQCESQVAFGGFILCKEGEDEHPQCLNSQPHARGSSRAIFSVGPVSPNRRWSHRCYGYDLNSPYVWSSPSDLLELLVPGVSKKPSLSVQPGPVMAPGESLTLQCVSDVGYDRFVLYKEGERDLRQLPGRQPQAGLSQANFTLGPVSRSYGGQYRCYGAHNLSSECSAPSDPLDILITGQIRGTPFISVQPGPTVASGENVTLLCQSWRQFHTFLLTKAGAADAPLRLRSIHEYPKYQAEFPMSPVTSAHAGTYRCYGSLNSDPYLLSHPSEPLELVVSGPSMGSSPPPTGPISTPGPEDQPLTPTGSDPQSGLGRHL
T6 sequence (O75022 24-443 limits assumed): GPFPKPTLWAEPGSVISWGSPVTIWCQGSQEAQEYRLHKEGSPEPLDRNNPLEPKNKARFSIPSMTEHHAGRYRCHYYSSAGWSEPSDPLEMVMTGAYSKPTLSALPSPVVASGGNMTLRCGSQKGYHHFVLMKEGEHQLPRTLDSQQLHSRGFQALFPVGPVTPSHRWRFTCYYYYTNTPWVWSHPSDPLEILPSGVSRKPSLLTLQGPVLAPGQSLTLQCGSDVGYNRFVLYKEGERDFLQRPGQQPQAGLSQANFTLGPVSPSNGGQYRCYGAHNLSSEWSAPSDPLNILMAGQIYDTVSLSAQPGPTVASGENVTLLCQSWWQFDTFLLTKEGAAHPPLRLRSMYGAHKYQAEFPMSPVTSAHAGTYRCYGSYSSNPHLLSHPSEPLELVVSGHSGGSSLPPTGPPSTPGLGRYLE
T4 sequence (Q8NHL6 24-458 limits assumed): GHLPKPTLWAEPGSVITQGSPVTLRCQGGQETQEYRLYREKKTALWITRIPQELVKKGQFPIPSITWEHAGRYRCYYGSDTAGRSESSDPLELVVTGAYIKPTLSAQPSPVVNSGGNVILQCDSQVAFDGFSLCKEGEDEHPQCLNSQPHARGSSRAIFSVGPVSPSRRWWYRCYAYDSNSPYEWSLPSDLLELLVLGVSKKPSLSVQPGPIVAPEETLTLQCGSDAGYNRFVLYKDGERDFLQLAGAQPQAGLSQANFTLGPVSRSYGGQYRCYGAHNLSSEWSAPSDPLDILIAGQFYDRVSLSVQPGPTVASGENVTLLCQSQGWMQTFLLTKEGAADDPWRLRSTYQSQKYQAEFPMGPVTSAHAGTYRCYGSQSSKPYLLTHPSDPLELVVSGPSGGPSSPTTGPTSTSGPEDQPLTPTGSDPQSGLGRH
T8 sequence (fusion chain, as listed by the source): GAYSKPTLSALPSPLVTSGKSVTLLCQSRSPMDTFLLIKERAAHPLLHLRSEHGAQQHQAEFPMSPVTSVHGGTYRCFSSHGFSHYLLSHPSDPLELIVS
T3 sequence (Q8NHJ6 27-118): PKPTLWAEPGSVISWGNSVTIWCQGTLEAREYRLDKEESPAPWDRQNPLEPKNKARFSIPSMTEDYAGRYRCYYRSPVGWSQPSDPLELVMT

B1: anti-LILRB4 rabbit monoclonal antibody #128-3 (antibody, V domains shown)
VH: EQSLEESGGDLVTPGASLTLTCKASGIDFSNHYYIYWVRQAPGKGLEWIGCIFSGDSASTYYASWAKGRFTISKSSSPTVTLQMTSLTAADTATYFCARGMSTNDWASDLWGPGTMVTVSS
VL: ELVMTQTPASVSAAVGGTVTINCQASESINSIYLAWYQQKPGQRPKLLIYRASTLASGVSSRFKGSASGTGFTLTISDLECADAATYYCQQSYDWGDVENTFGGGTEVEIK
As for B1, the EC50 turned out to be 0.184 nM with human LILRB4 [1] and 0.0276 µg/mL with human LILRB4 [3]. The “EC50 (read off the curve)” value with LILRB4-ECD-Fc was approximately 0.02 µg/mL; in assay [2] it was approximately 0.02 µg/mL; with human LILRB4 [7], approximately 0.01 µg/mL. The binding result with LILRB1, in the assay with LILRB2 [4], with LILRB3 [5], with LILRB5 [6], with D2 and with SR was “no binding” in each case.

B2: anti-LILRB4 rabbit monoclonal antibody #156-1 (antibody, V domains shown)
VH: QSVKESEGDLVKPGASLTLTCRASGFSFSSDYNMCWVRQAAGKGLEWIACIGVGTSGKTAYATWAKGRFTISRSSSTTVALQMTSLTVADTATYFCARPSYGSGGEGGGSGLWGPGTLVTISS
VL: ELDLTQTPASVSEPVGGTVTIKCQASQSIHSDLAWYQQKPGQRPKLLIYVASYLASGVPSRFSGSGSGTEYTLTISDLECADAATYYCQSTYYGSDYVGGAFGGGTEVVVK
notes: Rabbit mAb
B2: the EC50 in the assay with human LILRB4 [1] amounted to 0.0828 nM; in the assay with human LILRB4 [8], 0.0124 µg/mL.

B3: anti-LILRB4 rabbit monoclonal antibody #210 (antibody, V domains shown)
VH: EQSVEESGGRLVTPGTPLTLTCTVSGFSLSSYIMGWVRQARGKGLEYIGAINTDGATYYATWAKGRFTISRTSTTVHLKVTSPTTEDTATYFCARSLAPGDSNINLWGQGTLVTISS
VL: ELVLTQTPSPVSAAVGGTVTISCQSSESVYRNNRLAWYQQKPGQPPKRLIYLASTLASGVPSRFKGSGSGTQFTLTISDVQCDDAAAYYCAGDSGVGIIAFGGGTEVEIK
With B3, the EC50 was 0.0997 nM in the assay with human LILRB4 [1] and 0.0149 µg/mL in the assay with human LILRB4 [11]. For the same molecule, the binding result with LILRB3 [9] is “binds”; with LILRB5 [10], “binds”; with LILRB1, “no binding”; with LILRB2 [4], “no binding”; in the assay with D2, “no binding”; with SR, “no binding”.

B4: anti-LILRB4 rabbit monoclonal antibody #6 (antibody, V domains shown)
VH: QSVKESGGRLVTPGTPLTLTCTASGFSLSTYYIDWVRQAPGRGLEYIGVINPGGSAVYATWAKGRFTISRTSTTVDLKMTSLTTEDTATYFCARGWSRGDLWGQGTLVTISS
VL: ELDMTQTPSPVSAAVGGTVTIKCQSSQNVYDDDTLSWYQQKPGQPPKLLIYDASKLASGVPSRFKGSGSGTQFTLTISGVQCDDAATYYCLGVFHDAADNAFGGGTELEIK
notes: Rabbit mAb
In the case of B4, the EC50 stood at 0.0767 nM with human LILRB4 [1] and 0.0115 µg/mL with human LILRB4 [12].

B5: anti-LILRB4 rabbit monoclonal antibody #214 (antibody, V domains shown)
VH: QSVKESGGRLVTPGTPLTLTCTVSGFSLSSYWMHWVRQAPGKGLEWVGVVSVSGNFYYATWAKGRFTISKTSTTVDLKITSPTIEDTAFYFCTMSFALWGQGTLVTISS
VL: ELVMTQTASPVSAAVGGTVTINCQSSQSVYSNNNLGWLKQKPGQPPKELIYYASTLASGVPSRFKGSGSGTQFTLTISDLECDDAATYYCVGGYGCSSADCSVFGGGTEVEIK
notes: Rabbit mAb
Molecule B5 returned an EC50 in the assay with human LILRB4 [13] of 0.00764 µg/mL.

B6: anti-LILRB4 rabbit monoclonal antibody #129 (antibody, V domains shown)
VH: EQSVKESGGGLVKPGASLTLTCTASGFSFSSSYHMCWVRQAPGKGLEWIGCIATGYGSTYYASWAKGRFTISKTSSTTVTLQVPSLTAADTATCFCARGYYRYTSDSYGYFDLWGPGTLVTISS
VL: ELVLTQTASPVSAAVGGTVTVNCQASQSISSGYLSWYQQKPGQPPKLLIYYASRLASGVPSRFSGSGSGTEYTLTISGVQCDDAATYYCLYVSYDGTTTDNAFGGGTEVEIK
Take B6: the EC50 with human LILRB4 [1] was 0.0901 nM; with human LILRB4 [14], 0.0135 µg/mL. In addition, the binding result with LILRB1, in the assay with LILRB2 [4], with LILRB3 [5], with LILRB5 [6], with D2 and with SR was “no binding” each time.

B7: anti-LILRB4 rabbit monoclonal antibody #71-1 (antibody, V domains shown)
VH: QSVEESGGGLVKPGASLTLTCTASGFSFSSSYHMCWVRQAPGKGLEWIGCIATGYGSTYYASWAKGRFTISKTSSTTVTLQVPSLTAADTATCFCARGYYRYTSDSYGYFDLWGPGTLVTISS
VL: ELDLTQTASPVSAAVGGTVTVNCQASQSISSGYLSWYQQKPGQPPKLLIYYASRLASGVPSRFSGSGSGTEYTLTISGVQCDDAATYYCLYVSYSGTTTDNAFGGGTDVEIK
notes: Rabbit mAb
Turning to B7, the EC50 in the assay with human LILRB4 [1] came out at 0.134 nM; with human LILRB4 [15], 0.02 µg/mL.

B8: anti-LILRB4 rabbit monoclonal antibody #223 (antibody, V domains shown)
VH: EQSVKESGGRLVTPGTPLTLTCIVSGFSLNNYAISWVRQAPEKGLEWIGMIRSDGHVDYATWAKGRFTISKTSTTVDLKMTSLTTEDTATYFCARGGHFFNPWGPGTLVTISS
VL: ELVMTQTPSPVSAAVGGTVTISCQSSQTVYNYNELAWYQQKPGQPPKLLIDAASTLASGVPSRFSGSGSGTQFTLKISEVQCDDAATYYCQGTYYISGWYYTFGGGTEVVVK
notes: Rabbit mAb
With B8, the figures for the concentration giving a half-maximal response (EC50) with human LILRB4 [1] and in the assay with human LILRB4 [16] were 0.0897 nM and 0.0274 µg/mL, respectively.

B9: anti-LILRB mAb C39 (antibody, V domains shown)
VH: EVQLVESGGGLVQPGGSLKLSCAASGFTFSSYGMSWVRQTPDKRLELVATIDSNGGGTYYPDSVKGRFTISRDNAKNTLYLQMSSLKSEDTAMHYCARDGGGSYGYYYAMDYWGQGTSVTVSS
VL: DIVMSQSPSSLAVSAGEKVTMRCKSSQSLLNSRTRKSYLAWYQQKSGQSPKLLIYWASTRESGVPDRFTGSGSGTDFTLTISSVQAEDLAVYYCKQSYNLPWTFGGGTKLEIK
notes: mAb against LILRB2
Turning to B9, the binding result with human LILRB4 [17], in the assay with LILRB3 [18] and in the assay with LILRB5 [19] was “binds” in each case. In the assay with LILRB2 [20], the “% of cells in the positive gate” value stood at 18.7%.
